These results are taken from patent US20250340890A1.

The target of the assay is human angiotensin converting enzyme 2 (hACE2) (human) (UniProt Q9BYF1).

Turning to “His-tagged Delta variant SARS-CoV-2 S1S2 protein (ligand)”, the Absorbance (λ450 nm), after background correction, Average (absorbance units) came out at 0.551; the Absorbance (λ450 nm), after background correction, Trial 1 (absorbance units) was 0.538; the Absorbance (λ450 nm), after background correction, Trial 2 (absorbance units) was 0.558; the Absorbance (λ450 nm), after background correction, Trial 3 (absorbance units) is 0.557. This substance also came in with an Absorbance (λ450 nm), before background correction, Trial 1 (absorbance units) of 0.578; an Absorbance (λ450 nm), before background correction, Trial 2 (absorbance units) of 0.598; an Absorbance (λ450 nm), before background correction, Trial 3 (absorbance units) of 0.597.

As for “His-tagged Omicron variant SARS-CoV-2 S1S2 protein (ligand)”, the Absorbance (λ450 nm), after background correction, Average (absorbance units) stood at 0.489; the Absorbance (λ450 nm), after background correction, Trial 1 (absorbance units) is 0.482; the Absorbance (λ450 nm), after background correction, Trial 2 (absorbance units) was 0.49; the Absorbance (λ450 nm), after background correction, Trial 3 (absorbance units) came to 0.494. The Absorbance (λ450 nm), before background correction, Trial 1 (absorbance units) worked out at 0.522; the Absorbance (λ450 nm), before background correction, Trial 2 (absorbance units) came to 0.53; the Absorbance (λ450 nm), before background correction, Trial 3 (absorbance units) is 0.534.
